Laboratory results from patent US10947289B2, “Glyco-modified atrial natriuretic peptide” (priority 2013, dated 2021).

Key:
[1] = Detection of test substance in rat plasma by LC-MS/MS (Test Example 3); format: in vivo; settings: rat plasma, 100 nmol/kg i.v., LC-MS/MS; time at which the test substance was finally detected
Protocol: Before the administration and 15, 30, 60, 90, 120, 180, and 240 minutes after the administration, blood was sampled (200 μL/sampling) over time from the jugular vein. The blood samples were immediately left on ice.
The collected blood samples were centrifuged at 5000 rpm at 4° C. for 5 minutes by use of a centrifuge (Sigma 4K15, rotor: Nr12130-H). The separated plasma samples were divided into two types (samples for PK measurement and for cGMP measurement) and stored at −80° C. until measurement.
An internal standard (20 μL (500 nM) of a stable isotope of hANP) and an acetic acid mixed solvent (AcOH/distilled water/DMSO=5/3/2, v/v/v) were added to 50 μL of each rat plasma sample prepared in (1) and then mixed therewith. The mixture was transferred to Amicon Ultra-0.5 50K (Millipore Corp., MA) and centrifuged at 14000 rpm at 15° C. for 30 minutes. The obtained filtrate was transferred to Amicon Ultra-0.5 3K (Millipore Corp., MA) and centrifuged again under the aforementioned conditions. The solution remaining on the filter was recovered and transferred to a 96-well deep well plate. The content of the test substance was measured by LC-MS/MS (LC: Shimadzu LC-10ADVP (Shimadzu Corp.), MS/MS: API 4000 QTrap (AB SCIEX)) to calculate the concentration in plasma. The time at which the test substance was finally detected is shown in the rightmost column of Table 2.

human GC-A = molecular target: T1, human GC-A (Homo sapiens, UniProt P16066); test: cGMP elevating activity in CHO/human GC-A cells (Test Example 1); format: cell-based
T1 construct: expressed in transfected cells; host or cells: CHO cells
T1 sequence (P16066 33-1061): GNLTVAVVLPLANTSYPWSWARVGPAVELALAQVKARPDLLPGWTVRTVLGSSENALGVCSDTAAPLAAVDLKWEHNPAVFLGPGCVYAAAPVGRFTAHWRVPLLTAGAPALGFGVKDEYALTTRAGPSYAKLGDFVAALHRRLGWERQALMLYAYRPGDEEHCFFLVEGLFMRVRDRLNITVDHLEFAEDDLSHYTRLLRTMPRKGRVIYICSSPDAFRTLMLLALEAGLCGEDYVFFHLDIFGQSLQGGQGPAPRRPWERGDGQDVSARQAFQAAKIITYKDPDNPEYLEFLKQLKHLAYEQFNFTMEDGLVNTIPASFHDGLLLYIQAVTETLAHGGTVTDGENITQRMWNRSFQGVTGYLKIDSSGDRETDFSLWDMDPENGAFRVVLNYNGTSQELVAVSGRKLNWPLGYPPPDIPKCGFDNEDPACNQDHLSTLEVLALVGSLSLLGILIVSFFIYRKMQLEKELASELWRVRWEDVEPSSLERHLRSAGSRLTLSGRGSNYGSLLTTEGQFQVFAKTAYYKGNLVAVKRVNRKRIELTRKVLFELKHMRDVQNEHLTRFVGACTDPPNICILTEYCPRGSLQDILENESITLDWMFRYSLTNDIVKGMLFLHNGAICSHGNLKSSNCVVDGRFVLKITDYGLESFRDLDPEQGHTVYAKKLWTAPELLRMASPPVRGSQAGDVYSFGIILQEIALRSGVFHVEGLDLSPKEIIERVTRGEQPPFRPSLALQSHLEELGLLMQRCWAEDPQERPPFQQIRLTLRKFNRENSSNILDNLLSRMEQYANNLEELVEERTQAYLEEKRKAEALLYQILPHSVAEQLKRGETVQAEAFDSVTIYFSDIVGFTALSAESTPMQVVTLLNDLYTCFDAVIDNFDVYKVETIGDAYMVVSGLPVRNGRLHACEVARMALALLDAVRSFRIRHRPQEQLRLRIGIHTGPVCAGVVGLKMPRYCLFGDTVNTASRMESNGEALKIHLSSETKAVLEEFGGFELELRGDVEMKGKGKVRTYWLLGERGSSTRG
Outline: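 cGMP in lysates was read by HTRF after a 15 min peptide exposure of GC-A-expressing CHO cells in a CO2 incubator, following 10 min room-temperature preincubation with 1.6 mM IBMX in KRB. T/C values were normalised between solvent wells (0) and 1 nM ANP wells (1).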

| SMILES | Maximum time of detection after administration [1] | EC50 (human GC-A) |
| --- | --- | --- |
| CC[C@H](C)[C@@H]1NC(=O)[C@H](CCCNC(=N)N)NC(=O)[C@H](CC(=O)O)NC(=O)[C@H](CCSC)NC(=O)[C@H](CCCNC(=N)N)NC(=O)CNC(=O)CNC(=O)[C@H](Cc2ccccc2)NC(=O)[C@@H](NC(=O)[C@H](CO)NC(=O)[C@H](CO)NC(=O)[C@H](CCCNC(=N)N)NC(=O)[C@H](CCCNC(=N)N)NC(=O)[C@H](CC(C)C)NC(=O)[C@H](CO)NC(=O)[C@@H](N)CC(=O)N[C@@H]2O[C@H](CO)[C@@H](O[C@@H]3O[C@H](CO)[C@@H](O[C@@H]4O[C@H](CO[C@H]5O[C@H](CO)[C@@H](O)[C@H](O)[C@@H]5O[C@@H]5O[C@H](CO)[C@@H](O[C@@H]6O[C@H](CO[C@]7(C(=O)O)C[C@H](O)[C@@H](NC(C)=O)[C@H]([C@H](O)[C@H](O)CO)O7)[C@H](O)[C@H](O)[C@H]6O)[C@H](O)[C@H]5NC(C)=O)[C@@H](O)[C@H](O[C@H]5O[C@H](CO)[C@@H](O)[C@H](O)[C@@H]5O[C@@H]5O[C@H](CO)[C@@H](O[C@@H]6O[C@H](CO[C@]7(C(=O)O)C[C@H](O)[C@@H](NC(C)=O)[C@H]([C@H](O)[C@H](O)CO)O7)[C@H](O)[C@H](O)[C@H]6O)[C@H](O)[C@H]5NC(C)=O)[C@@H]4O)[C@H](O)[C@H]3NC(C)=O)[C@H](O)[C@H]2NC(C)=O)CSSC[C@@H](C(=O)N[C@@H](CC(N)=O)C(=O)N[C@@H](CO)C(=O)N[C@@H](Cc2ccccc2)C(=O)N[C@@H](CCCNC(=N)N)C(=O)N[C@@H](Cc2ccc(O)cc2)C(=O)O)NC(=O)CNC(=O)[C@H](CC(C)C)NC(=O)CNC(=O)[C@H](CO)NC(=O)[C@H](CCC(N)=O)NC(=O)[C@H](C)NC(=O)CNC1=O [Compound 2-3, (SG-)Asn-hANP(1-28)] | 2 h | 0.12 nM |
| CC[C@H](C)[C@@H]1NC(=O)[C@H](CCCNC(=N)N)NC(=O)[C@H](CC(=O)O)NC(=O)[C@H](CCSC)NC(=O)[C@H](CCCNC(=N)N)NC(=O)CNC(=O)CNC(=O)[C@H](Cc2ccccc2)NC(=O)[C@@H](NC(=O)[C@H](CO)NC(=O)[C@H](CO)NC(=O)[C@H](CCCNC(=N)N)NC(=O)[C@H](CCCNC(=N)N)NC(=O)[C@H](CC(C)C)NC(=O)[C@H](CO)NC(=O)CCSCC(=O)NCCO[C@@H]2O[C@H](CO)[C@@H](O[C@@H]3O[C@H](CO)[C@@H](O[C@@H]4O[C@H](CO[C@H]5O[C@H](CO)[C@@H](O)[C@H](O)[C@@H]5O[C@@H]5O[C@H](CO)[C@@H](O[C@@H]6O[C@H](CO[C@]7(C(=O)O)C[C@H](O)[C@@H](NC(C)=O)[C@H]([C@H](O)[C@H](O)CO)O7)[C@H](O)[C@H](O)[C@H]6O)[C@H](O)[C@H]5NC(C)=O)[C@@H](O)[C@H](O[C@H]5O[C@H](CO)[C@@H](O)[C@H](O)[C@@H]5O[C@@H]5O[C@H](CO)[C@@H](O[C@@H]6O[C@H](CO[C@]7(C(=O)O)C[C@H](O)[C@@H](NC(C)=O)[C@H]([C@H](O)[C@H](O)CO)O7)[C@H](O)[C@H](O)[C@H]6O)[C@H](O)[C@H]5NC(C)=O)[C@@H]4O)[C@H](O)[C@H]3NC(C)=O)[C@H](O)[C@H]2NC(C)=O)CSSC[C@@H](C(=O)N[C@@H](CC(N)=O)C(=O)N[C@@H](CO)C(=O)N[C@@H](Cc2ccccc2)C(=O)N[C@@H](CCCNC(=N)N)C(=O)N[C@@H](Cc2ccc(O)cc2)C(=O)O)NC(=O)CNC(=O)[C@H](CC(C)C)NC(=O)CNC(=O)[C@H](CO)NC(=O)[C@H](CCC(N)=O)NC(=O)[C@H](C)NC(=O)CNC1=O [Compound 2-25, SG-thioacetamide-hANP(1-28)] | 2 h | 0.054 nM |
| CC[C@H](C)[C@@H]1NC(=O)[C@H](CCCNC(=N)N)NC(=O)[C@H](CC(=O)O)NC(=O)[C@H](CCSC)NC(=O)[C@H](CCCNC(=N)N)NC(=O)CNC(=O)CNC(=O)[C@H](Cc2ccccc2)NC(=O)[C@@H](NC(=O)[C@H](CO)NC(=O)[C@H](CO)NC(=O)[C@H](CCCNC(=N)N)NC(=O)[C@H](CCCNC(=N)N)NC(=O)[C@H](CC(C)C)NC(=O)[C@H](CO)NC(=O)CCOCCOCCOCCOCCOCCOCCOCCOCCOCCOCCOCCOCCNC(=O)[C@H](CC(=O)N[C@@H]2O[C@H](CO)[C@@H](O[C@@H]3O[C@H](CO)[C@@H](O[C@@H]4O[C@H](CO[C@H]5O[C@H](CO)[C@@H](O)[C@H](O)[C@@H]5O[C@@H]5O[C@H](CO)[C@@H](O[C@@H]6O[C@H](CO[C@]7(C(=O)O)C[C@H](O)[C@@H](NC(C)=O)[C@H]([C@H](O)[C@H](O)CO)O7)[C@H](O)[C@H](O)[C@H]6O)[C@H](O)[C@H]5NC(C)=O)[C@@H](O)[C@H](O[C@H]5O[C@H](CO)[C@@H](O)[C@H](O)[C@@H]5O[C@@H]5O[C@H](CO)[C@@H](O[C@@H]6O[C@H](CO[C@]7(C(=O)O)C[C@H](O)[C@@H](NC(C)=O)[C@H]([C@H](O)[C@H](O)CO)O7)[C@H](O)[C@H](O)[C@H]6O)[C@H](O)[C@H]5NC(C)=O)[C@@H]4O)[C@H](O)[C@H]3NC(C)=O)[C@H](O)[C@H]2NC(C)=O)NC(=O)CO[C@@H]2O[C@H](CO)[C@@H](O[C@@H]3O[C@H](CO)[C@@H](O[C@@H]4O[C@H](CO[C@H]5O[C@H](CO)[C@@H](O)[C@H](O)[C@@H]5O[C@@H]5O[C@H](CO)[C@@H](O[C@@H]6O[C@H](CO[C@]7(C(=O)O)C[C@H](O)[C@@H](NC(C)=O)[C@H]([C@H](O)[C@H](O)CO)O7)[C@H](O)[C@H](O)[C@H]6O)[C@H](O)[C@H]5NC(C)=O)[C@@H](O)[C@H](O[C@H]5O[C@H](CO)[C@@H](O)[C@H](O)[C@@H]5O[C@@H]5O[C@H](CO)[C@@H](O[C@@H]6O[C@H](CO[C@]7(C(=O)O)C[C@H](O)[C@@H](NC(C)=O)[C@H]([C@H](O)[C@H](O)CO)O7)[C@H](O)[C@H](O)[C@H]6O)[C@H](O)[C@H]5NC(C)=O)[C@@H]4O)[C@H](O)[C@H]3NC(C)=O)[C@H](O)[C@H]2NC(C)=O)CSSC[C@@H](C(=O)N[C@@H](CC(N)=O)C(=O)N[C@@H](CO)C(=O)N[C@@H](Cc2ccccc2)C(=O)N[C@@H](CCCNC(=N)N)C(=O)N[C@@H](Cc2ccc(O)cc2)C(=O)O)NC(=O)CNC(=O)[C@H](CC(C)C)NC(=O)CNC(=O)[C@H](CO)NC(=O)[C@H](CCC(N)=O)NC(=O)[C@H](C)NC(=O)CNC1=O [Compound 2-27, SG-(SG-)Asn-PEG(11)-hANP(1-28)] | 2 h | 0.26 nM |
